# Test results reported in PMC3025356, “Mechanism of the Ca^2+-Dependent Interaction between S100A4 and Tail Fragments of Nonmuscle Myosin Heavy Chain IIA” (Journal of Molecular Biology, 2011).
# Assays:
# [1] = molecular target: T1, S100A4 (Homo sapiens, UniProt P26447); assay: Summary of rate and equilibrium constants defined according to Scheme 1; format: binding
# T1 construct: We used full-length S100A4 for this analysis; made in house; host or cells: Escherichia coli BL21(DE3)
# Text: The interaction of myosin tail fragments (M) with S100A4 depends on [Ca^2+], with little detectable binding in the absence of Ca^2+.[2,7,17] Scheme 1 presents a minimal pathway describing the thermodynamics and kinetics of this interaction, where arrow lengths indicate the approximate position of the equilibria involved.
# [formula] Scheme 1 Ca2+ and myosin peptide (M) binding to S100A4.
# The binding of Ca^2+ and a target peptide to S100A4, as shown in Scheme 1, is thermodynamically coupled so that K1K2 = K0K3. For simplicity, we assume a 1:1 stoichiometry and independent binding sites, which are unlikely to be true at least for the longer fragments. However, the trends in binding remain valid for more complex cases. Binding of target peptides to S100A4 in the absence of Ca^2+ is weak (K0 > 100 μM), while binding of target peptides to S100A4 in the presence of Ca^2+ (K2) is around a micromolar or less for longer fragments. Knowing that Ca^2+ binding to S100A4 has K1 = 2–5 μM (from the ITC data above and the literature[14,17,18]) requires that Ca^2+ binding to the M–S100A4 complex be very tight (K3 < 0.15 μM and even lower for M200). The latter cannot be easily determined directly as it requires protein concentrations greater than K0 (i.e., >>100 μM) so that the proteins remain bound together throughout the titration with Ca^2+. However, K3 is readily determined by calculation because values or limits for K0, K1, and K2 are available (Table 2). This aspect is addressed further below for M200, which has the complication of forming filaments at the ionic strength used.
# [2] = molecular target: T1, S100A4; assay: Ca^2+ dependence of M200 turbidity in the presence of S100A4; format: biochemical; details: 5 μM M200 + S100A4; 100 mM NaCl, 20 mM Hepes, 1 mM Mg^2+, 1 mM EGTA, 1 μM Fura-2; read-out: apparent Kd for Ca^2+ binding
# Text: The decrease in fluorescence, […]
# that F-M16N binding was slightly faster.
# The equilibrium constant (K5) for dissociation of the M200.S100A4.Ca2+ complex The value of K5 (scheme 2) was estimated from two independent experiments. From the competition […]
# inhibition in the amplitude of the turbidity change arising from 5 M M200 at saturating Ca2+ concentrations. Under these conditions the free S100A4.Ca2+ concentration is ~ 0.06 M based on K2 = 3 […]
# concentration will remain close to its critical concentration (K4 = 0.1 M), so that K5 = 0.1 * 0.06 / 5 ≈ 0.001 M, which represents the binding of S100A4.Ca2+ to free M200.
# A second estimate was calculated from the apparent Ca2+ binding constant observed in the turbidity assay
# (Fig. S6c). 5 M M200 in the presence of S100A4 and 1 mM EGTA gave a high turbidity in 0.1 M NaCl buffer, as S100A4 binds weakly under these conditions. Addition of aliquots of Ca2+ caused filament dissociation as the free Ca2+ rose, to give an apparent binding constant for Ca2+ of 0.14 M (Fig. S6c). At […]
# contained 100 mM NaCl, 20 mM Hepes, 1 mM Mg2+, 1 mM EGTA and 1 µM Fura-2. Ca2+ was added in l aliquots and the turbidity measured (using the 10 mm path length). The free Ca2+ was calculated from the ratio of the Fura-2 340 nm to 362 nm excitation peaks, assuming a Kd of 0.224 M 1, measured between each addition of Ca2+ (using the 2 mm path length for excitation).
# [3] = molecular target: T1, S100A4; assay: Quin-2 fluorescence, Ca^2+ dissociation from S100A4 in the presence of target peptides; format: binding
# Method: Ca^2+ dissociation measurements for wild-type S100A4, using Quin-2 as described above, were repeated as a control for the effect of target peptides on this process. On mixing 10 μM S100A4 in the presence of Ca^2+ with 100 μM Quin-2, the observed profile was fitted to a single exponential with kobs = 17 s^− 1 (Fig. 5a; cf. k− 1 in Scheme 1).
# Fig. 5 Dissociation of Ca^2+ from S100A4 in the absence and in the presence of target peptides monitored using Quin-2 fluorescence. (a) Mixed with 100 μM Quin-2 was 10 μM S100A4 + 50 μM Ca^2+ (stopped-flow reaction chamber concentrations). A superposed fit to a single exponential yields kobs = 17 s^− 1. […] (d) As in (a), but with 2.5 μM M200 premixed with 5 μM S100A4. A biphasic exponential fit yielded rate constants of 13 s^− 1 (A = 26%) and 0.30 s^− 1 (A = 74%). […] Experiments were carried out in either 20 mM NaCl, 20 mM Tris, 1 mM DTT, and 100 μM Ca^2+ at pH 7.5 and 20 °C (a and b; cf. Malashkevich et al.[17]), or 100 mM NaCl, 10 mM Hepes, and 100 μM Ca^2+ at pH 7.5 and 20 °C (c and d). […] Rate constants were unaffected by the inclusion of 1 mM Mg^2+.
# Stopped-flow measurements were carried out using an SX18-MV apparatus (Applied Photophysics Ltd., Leatherhead, UK) with a dead time of 1.5 ms.[40] Records were generally captured on a logarithmic time base. Absorption (turbidity) measurements were usually recorded using a 10-mm pathlength, while fluorescence was recorded with a 2-mm pathlength for excitation and emission. The stated concentrations of components refer to the reaction chamber after mixing, unless otherwise indicated. Tyrosine fluorescence was excited at 280 nm, and the emission was collected through a UG11 bandpass filter plus a 305-nm longpass filter.[18] Fluorescein fluorescence was excited at 480 nm, and the emission was detected through a 515-nm longpass filter. Quin-2 fluorescence was measured by excitation at 336 nm, and emission was collected with a 455-nm longpass filter. For simultaneous recording of light scatter, a second channel was monitored through a UG11 filter. Rate constants were obtained by fitting to single-exponential or double-exponential functions using Kaleidagraph (Synergy Software) or Applied Photophysics Pro-Data software. Modeling of kinetic schemes was performed using Berkeley Madonna software.
# [4] = 2.5 μM M200 premixed with 5 μM S100A4
# T1 sequence (P26447 whole entry): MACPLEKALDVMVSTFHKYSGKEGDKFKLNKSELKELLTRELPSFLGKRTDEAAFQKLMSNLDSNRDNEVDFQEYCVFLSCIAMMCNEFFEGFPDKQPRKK
molecule,measurement,setting,value
"M200: His-tagged human NM-MHC IIA residues Q1761-E1960, V1913I substitution (protein, UniProt P35579 1761-1960, looked up, variant V1913I, His tag, His-tagged human NM-MHC IIA residues Q1761-E1960, V1913I substitution) QINTDLNLERSHAQKNENARQQLERQNKELKVKLQEMEGTVKSKYKASITALEAKIAQLEEQLDNETKERQAACKQVRRTEKKLKDVLLQVDDERRNAEQYKDQADKASTRLKQLKRQLEEAEEEAQRANASRRKLQRELEDATETADAMNREISSLKNKLRRGDLPFVVPRRMARKGAGDGSDEEVDGKADGAEAKPAE",k3,[1]; Ca^2+ association to peptide–S100A4,> 2000 μM^− 1 s^− 1
same,Kd,"[1]; Ca^2+ binding to peptide–S100A4, limit from K3 = K1K2/K0, read-out: K3",< 0.15 nM
same,k− 3,[1]; Ca^2+ dissociation from peptide–S100A4–Ca^2+,0.3 s^− 1
same,k− 2,[1]; peptide dissociation from S100A4–Ca^2+,< 0.3 s^− 1
same,Kd,[2],140 nM
same,fast-phase amplitude,[3]; [4],26%
same,slow-phase amplitude,[3]; [4],74%
same,slow-phase rate constant,"[3]; 2.5 μM M200 premixed with 5 μM S100A4, 100 mM NaCl",0.30 s^− 1
same,fast-phase rate constant,"[3]; 2.5 μM M200 premixed with 5 μM S100A4, 100 mM NaCl, 10 mM Hepes, 100 μM Ca^2+, pH 7.5, 20 °C",13 s^− 1
same,slower release of Ca^2+,[3]; in presence of coiled-coil fragments,0.3–0.5 s^− 1
same,"Ca^2+ dissociation rate constant from complex (k− 3), comparison",[3]; peptide–S100A4–Ca^2+ complex,0.3 s^− 1
